For experiment [1], the target named is coxsackievirus and adenovirus receptor (CAR) on CHO-CAR cells (UniProt P78310).
Experiment [2] concerns the target coxsackievirus and adenovirus receptor (CAR), as used in SPR (UniProt P78310). Description: SPR; recombinant fiber knob protein over receptor; about 5,000 RU of DSG2-Fc amine coupled to a CM5 chip at 10 μl/min; in triplicate; CAR and CD46 surfaces as previously described (ref 36). On the technique in general: SPR reads the build-up and loss of mass on a sensor chip optically.

For experiment [3], the target named is T1, coxsackievirus and adenovirus receptor (CAR), as used in SPR (UniProt P78310 20-365).
T1 chain: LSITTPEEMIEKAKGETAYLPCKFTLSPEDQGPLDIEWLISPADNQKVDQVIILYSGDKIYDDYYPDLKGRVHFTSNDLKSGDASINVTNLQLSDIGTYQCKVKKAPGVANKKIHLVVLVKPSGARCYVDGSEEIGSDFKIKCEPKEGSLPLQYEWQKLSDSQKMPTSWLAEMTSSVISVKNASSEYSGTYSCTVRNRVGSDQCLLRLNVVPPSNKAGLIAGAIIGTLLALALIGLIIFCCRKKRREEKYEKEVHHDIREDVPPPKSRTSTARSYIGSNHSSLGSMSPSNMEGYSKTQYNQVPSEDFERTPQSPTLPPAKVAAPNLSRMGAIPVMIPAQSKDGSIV
Description: SPR.

The Kd is a measure of binding affinity in units of concentration. For the molecule “human adenovirus type 49 fiber knob protein (domain or fragment)”, in experiment [1], the inhibition of HAdV-C5 transduction (luciferase) of CHO-CAR cells preincubated with recombinant HAdV-D49K is 50%. Moreover, in experiment [2], the Kd is 190 nM.

B1: human adenovirus type 49 fiber knob protein (domain or fragment)
chain: MRGSHHHHHHGSKKGDLVAWNKENDRRTLWTTPDPSPNCKVSEEKDSKLTLVLTKCGSQILASVSLLVVKGKFANINNKTNPGEDYKKFSVKLLFDANGKLLTGSSLDGNYWNYKNKDSVIGSPYENAVPFMPNSTAYPKIINNGTANPEDKKSAAKKTIVTNVYLGGDAAKPVATTISFNKETESNCVYSITFDFAWNKTYKNVPFDSSSLTFSYIAQDAEDKNE
One may read the koff as a measure of how fast the partners let go of each other. A lower koff goes with a long-lived complex. Take B1: the koff in experiment [3] came out at 0.0012 s⁻¹.

These data come from article PMC7851562 (2020).
